# In US20060270599A1, “Inhibiting angiogenesis using molecules that enhance plasmin formation or prolong plasmin activity” (Crossbeta Biosciences B.V., priority 2000, published 2006):
# B1: endostatin: Recombinant murine endostatin produced by Escherichia coli (protein, UniProt P39061 1591-1774, looked up)
# Endostatin: HTHQDFQPVLHLVALNTPLSGGMRGIRGADFQCFQQARAVGLSGTFRAFLSSRLQDLYSIVRRADRGSVPIVNLKDEVLSPSWDSLFSGSQGQLQPGARIFSFDGRDVLRHPAWPQKSVWHGSDPSGRRLMESYCETWRTETTGATGQASSLLSGRLLEQKAASCHNSYIVLCIENSFMTSFSK
# modifications: Endostatin
# notes: Recombinant murine endostatin produced by Escherichia coli
# B2: tPA: Alteplase (recombinant tPA), tissue plasminogen activator (protein, UniProt P00750 36-562, looked up)
# Tissue-type plasminogen …: SYQVICRDEKTQMIYQQHQSWLRPVLRSNRVEYCWCNSGRAQCHSVPVKSCSEPRCFNGGTCQQALYFSDFVCQCPEGFAGKCCEIDTRATCYEDQGISYRGTWSTAESGAECTNWNSSALAQKPYSGRRPDAIRLGLGNHNYCRNPDRDSKPWCYVFKAGKYSSEFCSTPACSEGNSDCYFGNGSAYRGTHSLTESGASCLPWNSMILIGKVYTAQNPSAQALGLGKHNYCRNPDGDAKPWCHVLKNRRLTWEYCDVPSCSTCGLRQYSQPQFRIKGGLFADIASHPWQAAIFAKHRRSPGERFLCGGILISSCWILSAAHCFQERFPPHHLTVILGRTYRVVPGEEEQKFEVEKYIVHKEFDDDTYDNDIALLQLKSDSSRCAQESSVVRTVCLPPADLQLPDWTECELSGYGKHEALSPFYSERLKEAHVRLYPSSRCTSQHLLNRTVTDNMLCAGDTRSGGPQANLHDACQGDSGGPLVCLNDGRMTLVGIISWGLGCGQKDVPGVYTKVTNYLDWIRDNMRP
# Experiments:
# [1] = target: tPA-mediated plasmin formation from plasminogen (Homo sapiens, UniProt P00750); assay: Measurement of plasmin activity (tPA-mediated plasmin generation, S-2251); format: biochemical; conditions: 50 μg/ml plasminogen, 30 U/ml tPA, 37° C. (FIG. 3)
# Protocol: FIG. 3: Effect on plasmin activity of (A) endostatin, (B) human vitronectin fragment+(a.a. 262-367) (SEQ ID NO:1), (C) FDP, and (D) peptide derived from FDP (a.a. 148-160) (SEQ ID NO: 2).
# Effect of FDP, FDP-derived synthetic peptide (a.a. 148-160) (SEQ ID NO:2), fragment (a.a. 262-367) vitronectin (SEQ ID NO:1), and endostatin on plasmin generation. Various concentrations were added.
# Reactions were performed at 37° C. in HBS buffer (20 mM Hepes, 4 mM KCl, 137 mM NaCl, 3 mM CaCl2, 0.1% BSA, pH 7.4) containing 50 μg/ml plasminogen with or without the addition of endostatin or FDP. The reactions were started by the addition of tPA at a final concentration of 30 U/ml. At several time points, 20 μl samples were taken and stopped with 20 μl buffer containing 150 mM εACA and 150 mM EDTA. Plasmin activity was determined in 96-well plates after the addition of 20 μl chromogenic substrate S-2251 at a final concentration of 1.6 mM. Increase in absorbance was measured at 405 nm for 10 min.
# [2] = tested on: mouse C26 colon carcinoma; assay: Subcutaneous tumor growth of mouse C26 colon carcinoma; format: in vivo; conditions: BALB/c mice, eleven days after tumor cell inoculation, mean ± standard error of the mean, control 2719±366
# Protocol: FIG. 1: Effect of fibrin degradation products (FDP) on tumor growth. For comparison, treatments with Alteplase® (recombinant tPA) or endostatin is shown. FDP was given continuously using Alzet® pumps (Alza, Palo Alto, Calif., USA, type 2001 or 2002) loaded with 200 μl FDP (5 mg/ml). In addition, every other day, FDP was given subcutaneously at a dose of 7 mg/kg.
# A model of subcutaneous tumor growth of a mouse C26 colon carcinoma was used to evaluate the effects of FDP. Eleven days after tumor cell inoculation, tumors of the control group had reached a volume of 2719±366 mm^3. In mice treated with FDP, the mean tumor growth was 719±188 mm^3. […] Treatment with tPA, which generates plasmin, suppressed tumor growth to a similar degree (tumor volume 492±215 mm^3) as FDP.
# The mouse colon adenocarcinoma cell line C-26 was maintained as a monolayer culture in Dulbecco's Minimal Essential Medium (DMEM) supplemented with 10% heat-inactivated fetal calf serum, penicillin (100 units/ml), and streptomycin (100 μg/ml) in a 5% CO2 environment. […] The presence of single cell suspension was confirmed by phase contrast microscopy, and cell viability was determined by trypan blue staining. […]
# The statistical significance of differences between groups was calculated by applying Student's 2-tailed t-test. […]
Molecule,stimulation of tPA-mediated plasmin formation [1],tumor volume [2] [mm^3]
B1,ability to stimulate tPA-mediated plasmin formation,1112±372
B2,–,492±215
